Target: human claudin-1 (human) (UniProt O95832)
Experiment: confocal fluorescence on SW620 cells with control siRNA versus CLDN1 siRNA; non-significant

human claudin-1 (human), sequence (O95832 whole entry): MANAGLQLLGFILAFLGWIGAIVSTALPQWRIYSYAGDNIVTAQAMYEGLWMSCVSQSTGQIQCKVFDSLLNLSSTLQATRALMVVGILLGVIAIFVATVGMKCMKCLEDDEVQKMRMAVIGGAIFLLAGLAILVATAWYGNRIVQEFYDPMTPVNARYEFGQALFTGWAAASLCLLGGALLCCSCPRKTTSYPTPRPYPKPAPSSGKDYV

“SPT*-Cy5.5 (control scrambled peptide SPTPSSR labeled with Cy5.5 via the GGGSK linker)” gave a fold-change of signal, siCL versus siCLDN1 cells of 0.8 fold.
